± gives the standard deviation of the averaged measurements.
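Further: ATP exposure 15 min at 22 °C before imaging.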

The test system of the data set is ATP. The data set is described as follows: switch fluorescence ratio, 500 uM ATP over buffer (Cy3 cluster intensity, sum of 5 cycles each) (fold (ratio)); higher = stronger signal-on switching upon ATP binding; sequences stand for … in TCGTCGGCAGCGTCAGATGTGTATAAGAGACAGTTTTTTTTTTTTTTTTTTTTTTTTT…TC. To be noted: aptamer strand: ATP DNA aptamer (quencher-CACCTGGGGGAGTATTGCGGAGGAAGG + anchor), 100 nM annealed; ATP concentration: 500 uM. The procedure, abridged:
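Between each of five buffer/ATP cycles, the flow-cell was stripped with NaOH and re-annealed. Each cycle imaged Cy3-labelled switching-strand clusters, annealed to 100 nM quencher-labelled ATP aptamer on a modified Illumina MiSeq flow-cell, first in selection buffer and then after 15 min with 500 uM ATP at 22 °C. The fluorescence ratio is summed target-cycle over summed buffer-cycle Cy3 intensity per cluster, averaged per switch-domain sequence, with clusters outside 100-1000 RFU excluded.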
Turning to ACAGAACAGT, the switch fluorescence ratio stood at 1.03 ± 0.016.
For TTCATTTTTG the value was 0.998 ± 0.044; for ATAATAGGTT, 0.986 ± 0.028.
For GGCTTGGTTA the value was 1.02 ± 0.015.
To TTGTTATAGA belongs 0.998 ± 0.024; to GGGTTAATGT, 1.01 ± 0.061.
GGGGGAAGCC: the switch fluorescence ratio came out at 0.98 ± 0.024.
For the sequence TGATGTGGTG, the switch fluorescence ratio worked out at 0.976 ± 0.018.
For TTCGCATAAT the value was 1.62 ± 0.3; for GATGATGTCC, 0.96 ± 0.01.
Consider TTCGTATTTT, for which the switch fluorescence ratio came out at 0.992 ± 0.026.
To GTGTATATAC belongs 0.993 ± 0.013; to TTCAAGGCAG, 1.03 ± 0.043.
Take AATCTCGGCC: the switch fluorescence ratio was 0.986 ± 0.015.
To TTTTGGAGC belongs 1.05 ± 0.068; to GGACATTCGC, 1.04 ± 0.013.
TAACGGTTAT: the switch fluorescence ratio is 1.01 ± 0.024.
In the case of TATATGAGAG, the switch fluorescence ratio was found to be 0.973 ± 0.017.
For ATAGTGATCG the value was 0.994 ± 0.042; for CTGGGACTGA, 1.02 ± 0.03; for GTTAGGGTTT, 0.996 ± 0.024.
For GCGTCTTGTG the value was 1.02 ± 0.11.
To CTATAGATTT belongs 0.973 ± 0.02.
With GGCGCTTGGG, the switch fluorescence ratio came out at 0.986 ± 0.022.
Take ATTTTCAATG: the switch fluorescence ratio was 1 ± 0.018.
For AGGGACGCTT the value was 1.14 ± 0.12; for CGTAAAAATG, 1.01 ± 0.024.
Take CCTAGCCTGC: the switch fluorescence ratio amounted to 1.16 ± 0.054.
For the sequence AGGTCAGGTG, the switch fluorescence ratio turned out to be 3.06 ± 0.33.
For ACCGGGCGAG the value was 1 ± 0.042; for ACCTTGGGAA, 1.01 ± 0.017; for TCTCCATTGC, 1.67 ± 0.035.
On to ACGGGGTCGG, for which the switch fluorescence ratio was 1.01 ± 0.044.
Consider TCGTCAGCGA, for which the switch fluorescence ratio was found to be 2.77 ± 0.06.
Turning to TTTAAGCGCT, the switch fluorescence ratio is 0.979 ± 0.029.
For GTTGCTGTCA the value was 1.06 ± 0.043.
To ATTGTTTTTA belongs 0.998 ± 0.033.
For AGGACTCCGT the value was 0.98 ± 0.095; for CTTTATGCTG, 1.05 ± 0.047.
Turning to TTTTTAGGG, the switch fluorescence ratio was determined as 0.983 ± 0.034.
For ATTCACTCTA the value was 1.08 ± 0.026; for GGTTCCATGC, 1.1 ± 0.014.
To CATTTATAAA belongs 0.992 ± 0.011; to ATAGTTTACT, 1.01 ± 0.024; to TGGATTAGTT, 0.96734 ± 0.00041.
To TTGGGGGTCG belongs 1.02 ± 0.034; to ACAGTGAAAT, 1.02 ± 0.039.
GCATGTGAAA: the switch fluorescence ratio came to 1 ± 0.015.
With AATTGTGTAT, the switch fluorescence ratio was determined as 0.973 ± 0.026.
For CAGCTGGGGT the value was 1.01 ± 0.039; for AGGACTAAGG, 0.98 ± 0.026; for TTTAGTGAG, 1.02 ± 0.011.
In the case of GGGGACGGTG, the switch fluorescence ratio stood at 1.03 ± 0.048.
For TGACCACCAG, the switch fluorescence ratio is 0.993 ± 0.019.
For TTTTTGAAAA the value was 1.018 ± 0.0055; for GAGAAGGGGG, 1.04 ± 0.049; for AGAAGATGTG, 0.973 ± 0.059.
To TTTGACTTGT belongs 1.005 ± 0.0045; to GGGGGACTCT, 0.986 ± 0.041; to TATAGAGGG, 0.969 ± 0.011.
For CGCCCTCTCC the value was 2.18 ± 0.23; for CTGGTAATGG, 1.04 ± 0.033; for ACCGTATCTT, 1.06 ± 0.053.
Regarding AGCCATATAG, the switch fluorescence ratio worked out at 1.048 ± 0.0066.
For GTTTTTGAAT the value was 0.992 ± 0.033; for CACCCGTGCT, 1.09 ± 0.016.
For GTCTCATCAC the value was 1.01 ± 0.056.

The values are drawn from the supplement of paper PMC10126150.
